For experiment [1], the target named is T1, human L1CAM (purified extracellular domain) (human, UniProt P32004 20-1112).
T1 construct: range 1-1112; Expressed in HEK293T from pJK-dhfr2-L1-monomer; The stated range 1-1112 begins at residue 1 of the precursor; no signal peptide limits are stated; also called human L1CAM antigen
Briefly: competitive ELISA. As to the method:
(§1) The affinities of the purified antibodies for human L1CAM were measured by competitive ELISA. Human L1CAM was prepared at a density of 1×10⁻⁶ M and serially diluted to 1×10⁻¹¹ M using a PBS buffer solution. Respective antibodies were prepared by diluting them in PBS buffer solution at particular concentrations according to their binding capacity. The antigens and antibodies thus diluted were reacted with each other at the same volume ratio, and allowed to react at room temperature for 2 hours.
(§2) 96-well plates (MaxiSorp, Nunc) were coated using the purified human L1CAM which were diluted in a buffer solution (15 mM Na₂CO₃, 34.84 mM NaHCO₃, pH 9.6) at a concentration of 100 ng/well, at 4° C. overnight. Next day, the wells were washed with 0.05% PBS-T buffer solution twice. Difco skim milk (BD) was dissolved in 0.05% PBS-T buffer solution at a concentration of 2%, and 200 μl thereof was added to each well, followed by incubation at room temperature for 1 hour. Then, the wells were washed with 0.05% PBS-T buffer solution twice. To the plate, 100 it of the antigen/antibody reactant that were reacted for 2 hours was added and allowed to react at room temperature for 1 hour. Then, the wells were washed with 0.05% PBS-T buffer solution three times to remove non-antigen bound antibodies. Goat anti-human IgG(Fc)-HRP (Pierce, 1/5000) that specifically recognizes the Fc region of human antibody was added as a secondary antibody, and allowed to react at room temperature for 1 hour. Then, the wells were washed with 0.05% PBS-T buffer solution four times to remove the remaining secondary antibodies. […] Then, 50 μl of 2.5 M H₂SO₄ solution was added to each well to terminate the enzymatic reaction. After terminating the reaction, absorbance was measured at 450 nm (VERSAmax microplate reader, Molecular Devices).
Affinity of the purified Ab417 antibody for human L1CAM was measured by competitive ELISA in the same manner as in Example 3-2.
A general note: ELISA stands for enzyme-linked immunosorbent assay.

Experiment [2] concerns the target T2, mouse L1CAM (purified extracellular domain with S1 tag) (mouse, UniProt P11627 20-1123).
T2 construct: extracellular domain; also called mouse L1CAM monomer; not shown: S1 tag from the pJEX2T vector
Description: competitive ELISA with mouse L1CAM.

Experiment [3] deals with T1, human L1CAM (purified extracellular …). Description: competitive ELISA (soluble human L1CAM against coated human L1CAM). The protocol: as §1, §2
Experiment [4] shares this target. Briefly: Octet RED (called SPR in the filing), antibody on AHC sensor, soluble human L1CAM. The protocol: (§3) In addition to the competitive ELISA, SPR (surface […] resonance) was measured using Octet RED (ForteBio, USA) according to the manufacturer's protocol to determine the affinities of Ab417 antibody and Ab4M antibody for human and mouse L1CAM. […] AHC (anti-human IgG Fc capture) sensor chip was used to analyze binding kinetics of the antibodies to antigens by examining changes in refractive index which occurs upon association and dissociation of antibody and antigen while transferring the sensor chip to PBS solution, antibody, PBS solution, antigen, and PBS solution in this order.
(BLI is a label-free optical method that tracks binding on a fibre tip over time.)

Experiment [5] deals with T2, mouse L1CAM (purified extracellular …). Description: Octet RED (called SPR in the filing), antibody on AHC sensor, soluble mouse L1CAM. The protocol: as §3
For experiment [6], the target named is T1, human L1CAM (purified extracellular …). Briefly: Octet RED, antibody on AHC sensor, soluble human L1CAM. The protocol:
(§4) Affinities of Ab417, Ab417-H6L2 mutant, and Ab417-H6L6 mutant for human and mouse L1CAM were examined using Octet RED (fortebio). […] Each 200 it thereof was added to opaque 96-well plate to prevent light transmission. AHC (anti-human IgG Fc capture) sensor chip was used to analyze binding kinetics of the antibodies to antigens by examining changes in refractive index which occurs upon association and dissociation of antibody and antigen while transferring the sensor chip to PBS solution, antibody, PBS solution, antigen, and PBS solution in this order.
(§5) Despite amino acid substitution, there were no changes in the affinities of these antibodies (Table 4), and there were also no changes in the affinities of these antibodies for mouse L1CAM (Table 5).

Experiment [7] deals with T2, mouse L1CAM (purified extracellular …). Description: Octet RED, antibody on AHC sensor, soluble mouse L1CAM. As to the method: as §4, §5
For experiment [8] the target is unchanged. Description: indirect ELISA on coated mouse L1CAM, mutant IgG in culture supernatant, relative to Ab4. From the text:
The expression vectors of respective mutants were obtained in a large amount, and transfected to human embryonic kidney HEK293T cells using Lipofectamine 2000 (invitrogen), followed by culture. The transfected cells produce and secrete whole antibodies out of the cells, and the culture supernatants were collected and subjected to indirect ELISA as follows. 96-well plates (MaxiSorp, Nunc) were coated using the purified extracellular domain of human L1CAM (hereinafter, referred to as ‘human L1CAM’) and the extracellular domain of purified mouse L1CAM (hereinafter, referred to as ‘mouse L1CAM’) as antigens, which were diluted in a buffer solution (15 mM Na₂CO₃, 34.84 mM NaHCO₃, pH 9.6) at a concentration of 100 ng/well, at 4° C. overnight. Next day, the plate was washed with 0.05% PBS-T buffer solution twice. Difco skim milk (BD) was dissolved in 0.05% PBS-T buffer solution at a concentration of 2%, and 200 μl thereof was added to each well, followed by incubation at 37° C. for 1 hour. Then, the wells were washed with 0.05% PBS-T buffer solution twice. To the plate, 100 μl of the supernatant was added and allowed to react at 37° C. for 1 hour. Then, the wells were washed with 0.05% PBS-T buffer solution three times to remove non-antigen bound antibodies. Goat anti-human IgG(Fc)-HRP (Pierce, 1/5000) that specifically recognizes the Fc region of human antibody was added as a secondary antibody, and allowed to react at 37° C. for 1 hour. Then, the wells were washed with 0.05% PBS-T buffer solution four times to remove the remaining secondary antibodies.
Then, 50 μl of 2.5 M H₂SO₄ solution was added to each well to terminate the enzymatic reaction. After terminating the reaction, absorbance was measured at 450 nm (VERSAmax microplate reader, Molecular Devices).

A word on the Kd: it is the equilibrium constant for the complex coming apart. By koff is commonly meant a measure of how fast the partners let go of each other. A high value points to a short-lived complex. By kon is commonly meant the second-order rate constant of association. A higher kon goes with faster complex formation.

T2 sequence (P11627 20-1123): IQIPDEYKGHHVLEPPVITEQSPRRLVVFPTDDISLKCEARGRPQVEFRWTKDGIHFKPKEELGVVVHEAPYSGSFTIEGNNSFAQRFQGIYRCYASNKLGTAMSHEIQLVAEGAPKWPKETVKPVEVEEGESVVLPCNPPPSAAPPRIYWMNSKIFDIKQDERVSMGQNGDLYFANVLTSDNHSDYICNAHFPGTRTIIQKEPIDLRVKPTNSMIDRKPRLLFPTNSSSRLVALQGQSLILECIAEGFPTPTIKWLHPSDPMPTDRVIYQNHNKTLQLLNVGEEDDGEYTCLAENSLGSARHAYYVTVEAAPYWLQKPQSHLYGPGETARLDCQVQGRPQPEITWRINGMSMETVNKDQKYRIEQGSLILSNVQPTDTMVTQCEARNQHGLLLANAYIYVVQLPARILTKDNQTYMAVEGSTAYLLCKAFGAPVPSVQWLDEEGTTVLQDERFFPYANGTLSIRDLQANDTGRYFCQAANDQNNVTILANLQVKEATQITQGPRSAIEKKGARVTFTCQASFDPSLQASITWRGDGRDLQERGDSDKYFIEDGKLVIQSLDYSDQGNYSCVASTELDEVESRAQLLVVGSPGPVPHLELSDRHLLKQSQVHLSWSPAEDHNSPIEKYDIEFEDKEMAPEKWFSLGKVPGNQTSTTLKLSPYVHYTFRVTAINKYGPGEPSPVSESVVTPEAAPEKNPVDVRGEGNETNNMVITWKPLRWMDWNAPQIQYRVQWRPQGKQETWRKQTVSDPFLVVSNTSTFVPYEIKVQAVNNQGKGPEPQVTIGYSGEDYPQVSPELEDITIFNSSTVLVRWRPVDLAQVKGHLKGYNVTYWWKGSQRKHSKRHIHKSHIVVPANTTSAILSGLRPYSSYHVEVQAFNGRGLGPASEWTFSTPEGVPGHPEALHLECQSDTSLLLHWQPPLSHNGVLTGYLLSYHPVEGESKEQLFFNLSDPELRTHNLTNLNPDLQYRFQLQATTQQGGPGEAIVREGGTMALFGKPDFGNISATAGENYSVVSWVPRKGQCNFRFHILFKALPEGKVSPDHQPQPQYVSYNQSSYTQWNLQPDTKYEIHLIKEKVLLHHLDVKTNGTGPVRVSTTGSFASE
T1 sequence (P32004 20-1112 limits assumed, form in doubt): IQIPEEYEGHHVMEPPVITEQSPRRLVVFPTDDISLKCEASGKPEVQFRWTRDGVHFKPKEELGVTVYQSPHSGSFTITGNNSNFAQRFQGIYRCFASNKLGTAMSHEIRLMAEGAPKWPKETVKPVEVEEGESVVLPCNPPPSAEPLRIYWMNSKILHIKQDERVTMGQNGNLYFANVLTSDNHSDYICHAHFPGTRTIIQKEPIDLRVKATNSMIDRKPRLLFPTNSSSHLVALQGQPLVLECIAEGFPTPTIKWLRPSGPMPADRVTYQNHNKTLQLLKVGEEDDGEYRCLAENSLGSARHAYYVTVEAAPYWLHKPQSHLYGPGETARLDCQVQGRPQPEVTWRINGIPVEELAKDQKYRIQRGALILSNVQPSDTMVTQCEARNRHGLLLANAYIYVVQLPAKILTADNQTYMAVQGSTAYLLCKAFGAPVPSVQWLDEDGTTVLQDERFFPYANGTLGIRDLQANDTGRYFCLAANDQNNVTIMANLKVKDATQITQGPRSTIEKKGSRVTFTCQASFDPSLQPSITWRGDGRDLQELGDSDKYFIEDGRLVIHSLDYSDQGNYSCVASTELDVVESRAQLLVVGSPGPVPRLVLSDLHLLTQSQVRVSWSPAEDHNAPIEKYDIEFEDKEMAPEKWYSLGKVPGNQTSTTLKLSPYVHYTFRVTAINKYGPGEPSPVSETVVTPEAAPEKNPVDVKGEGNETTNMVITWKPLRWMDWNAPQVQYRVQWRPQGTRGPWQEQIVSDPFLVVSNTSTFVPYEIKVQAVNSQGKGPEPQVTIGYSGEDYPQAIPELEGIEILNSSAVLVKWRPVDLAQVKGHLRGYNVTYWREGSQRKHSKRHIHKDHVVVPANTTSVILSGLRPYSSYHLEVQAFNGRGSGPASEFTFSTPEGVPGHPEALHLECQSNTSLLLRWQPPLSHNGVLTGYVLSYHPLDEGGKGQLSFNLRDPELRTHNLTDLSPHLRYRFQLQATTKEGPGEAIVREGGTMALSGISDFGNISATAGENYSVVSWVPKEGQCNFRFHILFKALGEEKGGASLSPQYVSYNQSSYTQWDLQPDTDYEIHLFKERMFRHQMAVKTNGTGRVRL

B1: Ab4M antibody (antibody, IgG1, V domains shown)
VH: EVQLVESGGGVVQPGRSLRLSCAASGFTFSRFGMHWVRQAPGKGLEWVAFISNDGSNKYYADSVKGRFTISRDNSKNTLYLQMNSLRPEDTAVYYCARGRAYGSGSLFDPWGQGTLVTVSS
VL: DIQLTQSPSSLSASVGDRVTITCRASRTISIYVNWYRQRPGKAPESLIYAASNLHSGVPSRFSGSGSGTDFTLTISSLQPEDFATYYCQQTHATRQYTFGQGTKLEIK
notes: Ab4 with V50F and H97A in VH and V75I, G84A and D93A in VK; Whole IgG (IgG1 vector pdCMV-dhfrC-Ab4M)
As to B1, the figures for the “fold higher affinity than Ab4” value in experiment [1] and in experiment [2] were around 45 fold and around 8 fold, respectively. For the same molecule, the Kd in experiment [2] amounted to 0.22 nM; in experiment [3], 2.9 nM; in experiment [4], 0.33 nM; in experiment [5] it was 0.0893 nM. Besides, the off-rate constant (koff) in experiment [4] turned out to be 4.3e-05 s⁻¹; in experiment [5] it was 2.22e-05 s⁻¹. In addition, the kon in experiment [4] was 130000 M⁻¹ s⁻¹; in experiment [5] it was 249000 M⁻¹ s⁻¹.

B2: Ab417-H6L2 antibody (antibody, V domains shown)
VH: EVQLVESGGGVVQPGGSLRLSCAASGFTFSRFGMHWVRQAPGKGLEWVAFISNEGSNKYYADSVKGRFTISRDNSANTLYLQMNSLRAEDTAVYYCARGRAYGSGSLFDPWGQGTLVTVSS
VL: DIQLTQSPSSLSASVGDRVTITCRASRTISSYVNWYRQRPGKAPESLIYAASNLHSGVPSRFSGSGSGTDFTLTISSLQPEDFATYYCQQSIGRGVVTFGQGTKLEIK
notes: H6 is the Ab417 VH with R16G, D54E, K76A and P88A; L2 is the Ab417 VK with I31S; also called Ab417-H6L2 mutant; H6L2 mutant
B2: in experiment [6], the equilibrium dissociation constant (Kd) is 0.22 nM, the koff turned out to be 3.22e-05 s⁻¹ and the on-rate constant (kon) was found to be 146000 M⁻¹ s⁻¹. For the same molecule, in experiment [7], the Kd worked out at 0.131 nM, the koff came out at 2.67e-05 s⁻¹ and the kon was found to be 204000 M⁻¹ s⁻¹.

B3: Ab417-H6L6 antibody (antibody, V domains shown)
VH: EVQLVESGGGVVQPGGSLRLSCAASGFTFSRFGMHWVRQAPGKGLEWVAFISNEGSNKYYADSVKGRFTISRDNSANTLYLQMNSLRAEDTAVYYCARGRAYGSGSLFDPWGQGTLVTVSS
VL: DIQLTQSPSSLSASVGDRVTITCRASRTISSYVNWYQQKPGQAPESLIYAASNLHSGVPSRFSGSGSGTDFTLTISSLQPEDFATYYCQQSIGRGVVTFGQGTKLEIK
notes: L6 is the Ab417 VK with I31S, R37Q, R39K and K42Q; also called Ab417-H6L6 mutant; H6L6 mutant
In experiment [6], B3 displayed an equilibrium dissociation constant (Kd) of 0.246 nM, a koff of 3.64e-05 s⁻¹ and a kon of 148000 M⁻¹ s⁻¹. In experiment [7], this molecule yielded a Kd of 0.0984 nM, a koff of 2.11e-05 s⁻¹ and a kon of 214000 M⁻¹ s⁻¹.

B4: H97A mutant of Ab4 antibody (antibody, IgG1, name in Kabat numbering, V domains shown)
VH: EVQLVESGGGVVQPGRSLRLSCAASGFTFSRFGMHWVRQAPGKGLEWVAVISNDGSNKYYADSVKGRFTISRDNSKNTLYLQMNSLRPEDTAVYYCARGRAYGSGSLFDPWGQGTLVTVSS
VL: DIQLTQSPSSLSASVGDRVTITCRASRTISIYVNWYRQRPGKAPESLIYAASNLHSGVPSRFSGSGSGTDFTLTVSSLQPEDFGTYYCQQTHDTRQYTFGQGTKLEIK
notes: Whole IgG made in the pdCMV-dhfrC-Ab4 vector (IgG1); also called VH H97A mutant of Ab4
For the molecule B4, the Kd in experiment [3] was found to be 29 nM.

B5: D93A mutant of Ab4 antibody (antibody, IgG1, V domains shown)
VH: EVQLVESGGGVVQPGRSLRLSCAASGFTFSRFGMHWVRQAPGKGLEWVAVISNDGSNKYYADSVKGRFTISRDNSKNTLYLQMNSLRPEDTAVYYCARGRHYGSGSLFDPWGQGTLVTVSS
VL: DIQLTQSPSSLSASVGDRVTITCRASRTISIYVNWYRQRPGKAPESLIYAASNLHSGVPSRFSGSGSGTDFTLTVSSLQPEDFGTYYCQQTHATRQYTFGQGTKLEIK
notes: Whole IgG made in the pdCMV-dhfrC-Ab4 vector (IgG1); also called VK D93A mutant
B5 showed a Kd in experiment [3] of 30 nM.

B6: G99A (antibody, V domains shown)
VH: EVQLVESGGGVVQPGRSLRLSCAASGFTFSRFGMHWVRQAPGKGLEWVAVISNDGSNKYYADSVKGRFTISRDNSKNTLYLQMNSLRPEDTAVYYCARGRHYASGSLFDPWGQGTLVTVSS
VL: DIQLTQSPSSLSASVGDRVTITCRASRTISIYVNWYRQRPGKAPESLIYAASNLHSGVPSRFSGSGSGTDFTLTVSSLQPEDFGTYYCQQTHDTRQYTFGQGTKLEIK
notes: whole IgG; also called Ab4 VH G99A (HCDR3 alanine mutant); copies: 2 + 2
B6: in experiment [8], the binding result is recorded as “no binding”.

B7: V50F/H97A mutant of Ab4 antibody (antibody, name in Kabat numbering, V domains shown)
VH: EVQLVESGGGVVQPGRSLRLSCAASGFTFSRFGMHWVRQAPGKGLEWVAFISNDGSNKYYADSVKGRFTISRDNSKNTLYLQMNSLRPEDTAVYYCARGRAYGSGSLFDPWGQGTLVTVSS
VL: DIQLTQSPSSLSASVGDRVTITCRASRTISIYVNWYRQRPGKAPESLIYAASNLHSGVPSRFSGSGSGTDFTLTVSSLQPEDFGTYYCQQTHDTRQYTFGQGTKLEIK
notes: also called VH V50F/H97A mutant
Consider B7, for which the Kd in experiment [3] is 18 nM.

B8: R96A (antibody, V domains shown)
VH: EVQLVESGGGVVQPGRSLRLSCAASGFTFSRFGMHWVRQAPGKGLEWVAVISNDGSNKYYADSVKGRFTISRDNSKNTLYLQMNSLRPEDTAVYYCARGAHYGSGSLFDPWGQGTLVTVSS
VL: DIQLTQSPSSLSASVGDRVTITCRASRTISIYVNWYRQRPGKAPESLIYAASNLHSGVPSRFSGSGSGTDFTLTVSSLQPEDFGTYYCQQTHDTRQYTFGQGTKLEIK
notes: whole IgG; also called Ab4 VH R96A (HCDR3 alanine mutant); copies: 2 + 2
In the case of B8, the binding result in experiment [8] is reported as “no binding”.

B9: Y98A (antibody, V domains shown)
VH: EVQLVESGGGVVQPGRSLRLSCAASGFTFSRFGMHWVRQAPGKGLEWVAVISNDGSNKYYADSVKGRFTISRDNSKNTLYLQMNSLRPEDTAVYYCARGRHAGSGSLFDPWGQGTLVTVSS
VL: DIQLTQSPSSLSASVGDRVTITCRASRTISIYVNWYRQRPGKAPESLIYAASNLHSGVPSRFSGSGSGTDFTLTVSSLQPEDFGTYYCQQTHDTRQYTFGQGTKLEIK
notes: whole IgG; also called Ab4 VH Y98A (HCDR3 alanine mutant); copies: 2 + 2
Take B9: in experiment [8], the binding result was “no binding”.
